Measured values: patent US20040001822A1, “Y1-isolated molecules comprising epitopes containing sulfated moieties, antibodies to such epitopes, and uses thereof” (priority 2000, published 2004)

Columns and labels:
[1] = Western blot with Y1 on aryl-sulfatase-treated heparin-BSA; assay type: binding; settings: 18 hr at 22° C.
Text: (§1) Y1 ligand was further characterized using enzymatic treatments with proteases, glycanases, and […]; Western blotting with Y1, anti-CD42 antibodies, anti-CD162 antibodies and 181, immunoprecipitation using Y1 and anti-CD162 antibodies; FACS analysis using Y1 anti-CD162 antibodies; and sequencing.
(§2) The table below summarizes the biochemical experiments preformed to characterize and localize the Y1 binding site on KG-1 cells.
(§3) Western Blot Analysis with Y1 on SDS-PAGE Reducing Gels
The nitrocellulose membrane was blocked using 5% skim milk for one hour at room temperature. The membrane was then washed 3 times for 5 minutes each with 0.05% Tween 20 in PBS at room temperature. The membrane was incubated with 5 μg/ml Y1-biotin (or 181-biotin) in 2% skim milk in PBS for one hour at room temperature. The membrane was then washed 3 times for 5 minutes each with cold 0.05% Tween 20 in PBS in the cold room (about 4 to about 10° C.). The membrane was then incubated in the cold room with a 1:1000 dilution of SAV-HRP (streptavidin-HRP) (at a final concentration of […]) in 2% skim milk, 0.05% Tween. The dilution was carried out at room temperature (about 25° C.), then the diluted SAV-HRP was cooled on ice for 10-15 minutes before use. The incubation was carried out for 1 hour with gentle shaking. After the incubation with SAV-HRP, the membrane was washed, as above. […]

KG-1 cells = experiment: Binding competition of Y1 forms on KG-1 cells; parameters: species or system human; settings: Y1 IgG-Biotin 50 ng; Y1 scFvs 5 μg and 10 μg
Text: To compare the binding of the scFv monomer (also referred to as CONY1) with the Y1 dimer, binding competition experiments were done in vitro on KG-1 cells. In addition, these experiments also compared the binding of the full Y1 IgG to the scFv Y1 monomers. To perform this study, a Y1 IgG was labeled with biotin.

[2] = system: RP-HPLC KG-1 membrane fraction; experiment: Western blot with Y1 on enzyme-treated KG-1 membrane fraction; assay type: binding, human
Text: as §1, §2, §3
The nitrocellulose membrane was blocked using 5% skim milk for one hour at room temperature. The membrane was then washed 3 times for 5 minutes each with 0.05% Tween 20 in PBS at room temperature. The membrane was incubated with 5 μg/ml Y1-biotin (or 181-biotin) in 2% skim milk in PBS for one hour at room temperature. The membrane was then washed 3 times for 5 minutes each with cold 0.05% Tween 20 in PBS in the cold room (about 4 to about 10° C.). The membrane was then incubated in the cold room with a 1:1000 dilution of SAV-HRP (streptavidin-HRP) (at a final concentration of […]) in 2% skim milk, 0.05% Tween. The dilution was carried out at room temperature (about 25° C.), then the diluted SAV-HRP was cooled on ice for 10-15 minutes before use. The incubation was carried out for 1 hour with gentle shaking. After the incubation with SAV-HRP, the membrane was washed, as above. The membrane was then incubated with Super Signal mixture (Pierce) for 5 minutes as directed in the commercial protocol, then excess solution was dried. The membrane was use to expose it to X-ray film (Fuji), and the film was developed.

B1: Y1 scFv: fully human scFv clone binding platelets and myelogenous leukemia cells, SEQ ID NO: 25 (protein, listed as Homo sapiens)
scFv: MKYLLPTAAAGLLLLAAQPAMAEVQLVESGGGVVRPGGSLRLSCAASGFTFDDYGMSWVRQAPGKGLEWVSGINWNGGSTGYADSVKGRFTISRDNAKNSLYLQMNSLRAEDTAVYYCARMRAPVIWGQGTLVTVSRGGGGSGGGGSGGGGSSELTQDPAVSVALGQTVRITCQGDSLRSYYASWYQQKPGQAPVLVIYGKNNRPSGIPDRFSGSSSGNTASLTITGAQAEDEADYYCNSRDSSGNHVVFGGGTKLTVLGAAAEQKLISEEDLNGAA
- Reactivity with Y1 [1]: Binds to
- competition with Y1 IgG-Biotin (KG-1 cells): partially competed
- Reactivity with Y1 ([2]; Mocarhagin, 7′ at 37° C.): No
- Reactivity with Y1 ([2]; O-Sialo glycoprotein endopeptidase, 30′ at 37° C., SDS-PAGE reducing gel): Reactivity
- Reactivity with Y1 ([2]; O-Sialo glycoprotein endopeptidase, 4 hr at 37° C.): No
- Reactivity with Y1 ([2]; aryl-sulfatase, 18 hr at 22° C.): No
